This assay deals with tcFGE_(W228F), inactive variant of formylglycine generating enzyme from Thermomonospora curvata (Thermomonospora curvata) (UniProt D1A7C3). The assay is described as follows: ITC.

Where no end group is shown, it is not given here. [ ]: non-standard residue; d: D form. 2Abz = Nc1ccccc1C(=O)O

Sequence of UniProt D1A7C3 (D1A7C3 20-303 W228F): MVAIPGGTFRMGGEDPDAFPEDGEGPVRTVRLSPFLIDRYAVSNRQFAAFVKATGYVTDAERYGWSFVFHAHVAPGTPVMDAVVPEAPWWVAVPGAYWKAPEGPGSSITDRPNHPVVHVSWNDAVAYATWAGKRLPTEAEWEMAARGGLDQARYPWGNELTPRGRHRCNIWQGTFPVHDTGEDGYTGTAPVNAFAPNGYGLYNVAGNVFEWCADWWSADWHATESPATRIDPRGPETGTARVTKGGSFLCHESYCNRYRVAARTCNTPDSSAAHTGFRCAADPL

B1: FGE-27: Abz-… (peptide)
peptide: [2Abz]ATTPLCGPSRASILSGR
For the molecule B1, the Kd (as a rule, the free concentration of one partner at which half of the binding sites on the other are occupied at equilibrium, for simple one-to-one binding) is 40 nM.

The values above are taken from publication PMC6676471.
